# Source: US8524227B2, “Anti-IL-TIF antibodies” (ZymoGenetics, Inc., priority 2002, dated 2013)
# T1: IL-TIF (Homo sapiens, UniProt Q9GZX6)
# T1 construct: made in house; host or cells: BHK cells
# T1 sequence (Q9GZX6 34-179): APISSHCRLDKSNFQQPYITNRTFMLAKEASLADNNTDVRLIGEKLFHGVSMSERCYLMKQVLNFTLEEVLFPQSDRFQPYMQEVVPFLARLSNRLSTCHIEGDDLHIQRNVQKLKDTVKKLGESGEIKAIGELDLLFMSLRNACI
# T2: IL-TIF (Homo sapiens, UniProt Q9GZX6)
# T2 sequence (Q9GZX6 13-179 limits assumed): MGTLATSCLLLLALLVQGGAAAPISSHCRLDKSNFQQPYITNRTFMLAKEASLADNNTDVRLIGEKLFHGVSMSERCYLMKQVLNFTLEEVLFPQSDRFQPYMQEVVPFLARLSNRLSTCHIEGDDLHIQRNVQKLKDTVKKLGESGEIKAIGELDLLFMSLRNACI
# How the values were obtained:
# [1] = DSS-induced colitis mouse model; type: in vivo, mice; settings: for histopathology screening score: 4% DSS in drinking water
# Text: Colitis was induced by DSS ingestion in Swiss Webster female mice from Charles River Laboratories. The mice were 10 and 11 weeks old at the start of the study. Mice were given 4% DSS in the drinking water for a period of 6 days (treated mice), or were given only normal drinking water (control mice). A Disease Activity Index clinical score (DAI) was used, which comprises a combination of measurements including stool quality, occult blood and weight loss. DAI was obtained daily for each mouse beginning one day after DSS treatment. After 6 days, DSS was removed from the drinking water of the treated mice. All mice were monitored by DAI clinical score until sacrifice at either 2, 7 or 10 days from the start of the study. On each of days 2 and 7, four DSS-treated mice and one control mouse were sacrificed. On day 10, four DSS-treated mice and two control mice were sacrificed. For all animals after sacrifice, the colon length was measured. Colon sections were fixed in 10% neutral buffered formalin for histologic analysis or frozen for mRNA extraction.
# Histologic index scores were obtained following the method in reference 1. Generally, the colon sections were scored blinded by a pathologist for crypt scores, hyperplastic epithelium, crypt distortion and inflammation.
# Daily, each mouse was graded as to a clinical score based on weight loss, stool consistence and intestinal bleeding. Higher scores were assigned for increasing amounts of weight loss, diarrhea and bleeding. The daily score for each mouse was the mean grade obtained from the three results/observations.
# K-562 cells = assay: K-562 cytotoxicity assay (MTT); type: cell-based, human; settings: 72 h
# Description: The K-562 cell line (CRL-243, ATCC) has attained widespread use as a highly sensitive in vitro target for cytotoxicity assays. K-562 blasts are multipotential, hematopoietic malignant cells that spontaneously differentiate into recognizable progenitors of the erythrocytic, granulocytic and monocytic series (Lozzio, B B et al., Proc. Soc. Exp. Biol. Med. 166: 546-550, 1981).
# K562 cells were plated at 5,000 cells/well in 96-well tissue culture clusters (Costar) in DMEM phenol-free growth medium (Life Technologies) supplemented with pyruvate and 10% serum (HyClone). Next day, human recombinant IL-TIF (Example 19), BSA control or retinoic acid (known to be cytotoxic to K562 cells) were added. Seventy-two hours later, the vital stain MTT (Sigma, St Louis, Mo.), a widely used indicator of mitochondrial activity and cell growth, was added to the cells at a final concentration of 0.5 mg/ml. MTT is converted to a purple formazan derivative by mitochondrial dehydrogenases. Four hours later, converted MTT was solubilized by adding an equal volume of acidic isopropanol (0.04N HCl in absolute isopropanol) to the wells. Absorbance was measured at 570 nm, with background subtraction at 650 nm. In this experimental setting, absorbance reflects cell viability. Results shown in Table 7 are expressed as % cytotoxicity.
# IL-TIF [2] = target: T1, IL-TIF; assay: Effect of zcytor16 on IL-TIF-induced acanthosis; type: in vivo, mice; settings: for Average Acanthosis: day 8, score 0-3
# Description: Mice (female, C3H/HEJ, 8 weeks old; Jackson Labs, Bar Harbor, Me.) were divided into eight groups of eight animals each. IL-TIF was administered by constant infusion via mini-osmotic pumps, as described in example 32a. Alzet mini-osmotic pumps (model 2001; Alza corporation Palo Alto, Calif.) were loaded under sterile conditions with IL-TIF protein (A#601F, 0.22 mL) diluted in phosphate buffered saline (pH 7.0) to a concentration within the pump of 0.22 mg/mL for group 1-2 mice, 0.45 mg/mL for group 3-4 mice, 0.9 mg/mL for group 5-6 mice, or 0 mg/mL (diluent only) for group 7-8 mice. These pumps are designed to deliver their contents at a rate of 0.5 μl per hour over a period of 14 days. Using this nominal rate of infusion, dose levels were calculated to be […] and 0 μg/day for groups 7-8. For each pair of groups at a given dose level of IL-TIF, one of the groups was injected three times (days 1, 3, and 5) with 0.1 mg of human zcytor16 Fc protein (described herein) by the interperitoneal route. The other group was injected in the same fashion with vehicle (PBS).
# On day 8 of the study, mice were euthanized and an approximately 1 cm square sample of skin surrounding the pump area was collected from each mouse. The skin was fixed in 10% neutral buffered formalin. Formalin fixed samples of skin were embedded in paraffin, routinely processed, sectioned at 5 um and stained with hematoxylin and eosin. The tissues were microscopically examined in blinded fashion by an ACVP board certified veterinary pathologist. This study was scored in a different manner than the previous example. The number of layers in the epidermis, from stratum basalis to stratum granulosum, was determined Based on the results, the sections were scored as follows: O-normal (2-3 layers), 1-mild thickening (3-4 layers), 2-moderate thickening (4-6 layers) and 3-severe thickening (>6 layers).
# [3] = IL-TIF-induced acanthosis, subcutaneous mini-osmotic pump; type: in vivo, mice; settings: for Average Acanthosis: score 0-4
# Description: Mice (female, C3H/HEJ, 8 weeks old; Jackson Labs, Bar Harbor, Me.) were divided into three groups of six animals and one group of 4. Human BHK-produced IL-TIF was administered by constant infusion via mini-osmotic pumps, resulting in local and steady state serum concentrations proportional to the concentration of the IL-TIF contained in the pump. Alzet mini-osmotic pumps (model 2002; Alza corporation Palo Alto, Calif.) were loaded under sterile conditions with IL-TIF protein (A601F, 0.22 mL) diluted in phosphate buffered saline (pH 7.0) to a concentration within the pump of 2 mg/mL for group 1 mice, 0.2 mg/mL for group 2 mice, 0.02 mg/mL for group 3 mice, or 0 mg/mL (diluent only) for group 4 mice. Pumps were implanted subcutaneously in mice through a 1 cm incision in the dorsal skin, and the skin was closed with sterile wound closures. These pumps are designed to deliver their contents at a rate of 0.5 μl per hour over a period of 14 days. Using this nominal rate of infusion, dose levels were calculated to be 24 μg/day, 2.4 μg/day, 0.24 μg/day and 0 μg/day for groups 1-4, respectively.
# At the end of the 14-day period, the mice were euthanized and an approximately 1 cm square sample of skin surrounding the pump area was collected from each mouse. The skin was fixed in 10% neutral buffered formalin. Formalin fixed samples of skin were embedded in paraffin, routinely processed, sectioned at 5 um and stained with hematoxylin and eosin. The tissues were microscopically examined in blinded fashion by an ACVP board certified veterinary pathologist. […] In addition, the skin of selected groups was imaged with a CoolSnap digital camera (Roper Scientific, Inc., San Diego, Calif.) and epidermal thickness measured using histomorphometry software (Scion Image for Windows, v. 4.02, Scion Corp., Frederick, Md.).
# IL-TIF [4] = target: T2, IL-TIF; assay: Inhibition of IL-TIF-induced proliferation of BaF3/CRF2-4/zcytor11 cells by soluble receptors; type: cell-based; settings: 100 pg/ml IL-TIF
# Description: BaF3/CRF2-4/zcytor11 cells described herein were spun down and washed in PBS 2 times to ensure the removal of the mIL-3, and then spun a third time and re-suspended in the complete media (RPMI 1640, 10% FBS, 1% GlutaMAX, 1% Sodium Pyruvate), but without mIL-3 (hereinafter referred to as “mIL-3 free media”). Cells were then counted in a hemocytometer. Cells were plated in a 96-well format at 5000 cells per well in a volume of 100 μl per well using the mIL-3 free media.
# IL-TIF protein (SEQ ID NO:3) was diluted to 200 pg/ml in mIL-3 free media. Zcytor16-Fc4 fusion protein (described herein) was diluted to 1 μg/ml in the mIL-3 free/IL-TIF media on the top row of the plate, and then diluted serially 1:2 down the remaining 7 rows on the 96-well plate, leaving a volume of 100 μl in each well. This was then added to the 100 μl of cells, for a final IL-TIF concentration of 100 pg/ml in all wells, and final Zcytor16-Fc4 concentrations of approximately […], 0.016, and 0.008 μg/ml in a total assay volume of 200 μl. CRF2-4/zcytor11-Fc4 was diluted to 8 μg/ml in the mIL-3 free/IL-TIF media on the top row of the plate, and then diluted serially 1:2 down the remaining 7 rows on the 96-well plate, leaving a volume of 100 μl in each well. This was then added to the 100 μl of cells, for a final IL-TIF concentration of 100 pg/ml in all wells, and final CRF2-4/zcytor11-Fc4 concentrations of approximately […], 0.25, 0.125 and 0.063 μg/ml, in a total assay volume of 200 The assay plates were incubated at 37° C., 5% CO2 for 4 days at which time Alamar Blue (Accumed, Chicago, Ill.) was added at […]. Plates were again incubated at 37° C., 5% CO2 for 16 hours. Alamar Blue gives a fluourometric readout based on number of live cells, and is thus a direct measurement of cell proliferation in comparison to a negative control. Plates were read on the Wallac Victor 2 1420 Multilabel Counter (Wallac, Turku, Finland) at wavelengths 530 (Excitation) and 590 (Emmssion). […] IL-TIF alone stimulated the cells 13-fold over background.
molecule,measurement,setting,value
dextran sulfate sodium [DSS],histopathology screening score,[1]; day 2,8.8
same,histopathology screening score,[1]; day 7,21
same,histopathology screening score,[1]; day 10,18
same,colon lengths vs non-treated controls,[1]; days 7 and 10,somewhat shorter
"IL-TIF: pro-inflammatory cytokine polypeptide, SEQ ID NO:3; also designated IL-22 (protein, listed as Homo sapiens) MGTLATSCLLLLALLVQGGAAAPISSHCRLDKSNFQQPYITNRTFMLAKEASLADNNTDVRLIGEKLFHGVSMSERCYLMKQVLNFTLEEVLFPQSDRFQPYMQEVVPFLARLSNRLSTCHIEGDDLHIQRNVQKLKDTVKKLGESGEIKAIGELDLLFMSLRNACI",% Cytotoxicity,K-562 cells; 100 ng/ml,16.2%
same,% Cytotoxicity,K-562 cells; 300 ng/ml,32%
same,skin histology,"IL-TIF [2]; IL-TIF at 2.5, 5, 10 μg/day",epidermal thickening
same,Average Acanthosis,IL-TIF [2]; pump 2.5 μg IL-TIF/day + 100 μL vehicle (3 injections),1.1
same,Average Acanthosis,IL-TIF [2]; pump 5 μg IL-TIF/day + 100 μL vehicle (3 injections),2.0
same,Average Acanthosis,IL-TIF [2]; pump 10 μg IL-TIF/day + 100 μL vehicle (3 injections),2.0
same,Average Acanthosis,"[3]; 0.24 μg IL-TIF/day, 14 days",2.2
same,Measured Thickness,"[3]; 2.4 μg IL-TIF/day, 14 days",67.5 pixels
same,Average Acanthosis,"[3]; 2.4 μg IL-TIF/day, 14 days",2.4
same,Average Acanthosis,"[3]; 24 μg IL-TIF/day, 14 days",3.0
same,skin histology,[3]; 2.4 and 24 μg/day,epidermal thickening
same,cell infiltrates,[3]; not observed in vehicle treated controls,mononuclear cell infiltrates in the epidermis
"CRF2-4/zcytor11-Fc4: secreted heterodimer of extracellular domains of hzcytor11 and CRF2-4, each fused to Fc4 (protein, left off: small tags and cut ends, secreted heterodimer of extracellular domains of hzcytor11 and CRF2-4, each fused to Fc4) chain 1: HAPEDPSDLLQHVKFQSSNFENILTWDSGPEGTPDTVYSIEYKTYGERDWVAKKGCQRITRKSCNLTVETGNLTELYYARVTAVSAGGRSATKMTDRFSSLQHTTLKPPDVTCISKVRSIQMIVHPTPTPIRAGDGHRLTLEDIFHDLFYHLELQVNRTYQMHLGGKQREYEFFGLTPDTEFLGTIMICVPTWAKESAPYMCRVKTLPDRTWTGSGSGSGSEPRSSDKTHTCPPCPAPEAEGAPSVFLFPPKPKDTLMISRTPEVTCVVVDVSHEDPEVKFNWYVDGVEVHNAKTKPREEQYNSTYRVVSVLTVLHQDWLNGKEYKCKVSNKALPSSIEKTISKAKGQPREPQVYTLPPSRDELTKNQVSLTCLVKGFYPSDIAVEWESNGQPENNYKTTPPVLDSDGSFFLYSKLTVDKSRWQQGNVFSCSVMHEALHNHYTQKSLSLSPGKLVPRGSGSGGEYMPME chain 2: MVPPPENVRMNSVNFKNILQWESPAFAKGNLTFTAQYLSYRIFQDKCMNTTLTECDFSSLSKYGDHTLRVRAEFADEHSDWVNITFCPVDDTIIGPPGMQVEVLDDSLHMRFLAPKIENEYETWTMKNVYNSWTYNVQYWKNGTDEKFQITPQYDFEVLRNLEPWTTYCVQVRGFLPDRNKAGEWSEPVCEQTTHDETVPSGSGSGSGSEPRSSDKTHTCPPCPAPEAEGAPSVFLFPPKPKDTLMISRTPEVTCVVVDVSHEDPEVKFNWYVDGVEVHNAKTKPREEQYNSTYRVVSVLTVLHQDWLNGKEYKCKVSNKALPSSIEKTISKAKGQPREPQVYTLPPSRDELTKNQVSLTCLVKGFYPSDIAVEWESNGQPENNYKTTPPVLDSDGSFFLYSKLTVDKSRWQQGNVFSCSVMHEALHNHYTQKSLSLSPGKGSGGHHHHHH",concentrations completely inhibiting proliferation,IL-TIF [4],8 µg/mL
same,concentrations partially inhibiting proliferation,IL-TIF [4],0.125 to 4 µg/mL
same,inhibition of the proliferative effect of IL-TIF,IL-TIF [4],much weaker inhibition
same,inhibition at lowest concentration,IL-TIF [4]; 63 ng/ml,barely detectable
